For 4 molecules, IC50, in vitro virus neutralization on MDCK cells and IC50, in vitro virus neutralization on MDCK-SIAT cells results are on record in patent US20150010566A1.

B1: AT10-004 (antibody, V domains shown)
VH: QVQLVQSGAEVRKPGASVKVSCKASGYTFTRHGISWVRQAPGQGLEWMGWISAYTGDTDYAQKFQGRVTMTTDTSTNTAYMELRSLRSDDAAVYYCARLRLQGEVVVPPSQSNWFDPWGQGTLVTVSS
VL: EIVLTQSPATLSLYPGERATLSCRASQSVSRYLAWYQQKPGQAPRLLIYDASNRATGIPARFSGSGSGTDFTLTISSLEPEDFAVYYCQQRSNWLKITFGQGTRLEIKG
B2: AT10-001 (antibody, V domains shown)
VH: EVQLLESGGGLVQPGGSLRLSCAASGFSFSTYAMSWVRQAPGKGLEWVSGISGSGESTYYADSVKGRFTVSRDNSKNTLYLQMNSLRAEDTAVYYCAKQGDHIAWLLRGINFDYWGQGVLVTVSS
VL: EIVLTQSPGTLSLSPGERATLSCRASQSVSSSYLAWYQQKPGQAPRLLIYGASTRATGIPDRFSGRGSGTDFTLTISSLEPEDFAVYYCQNYGSPFLFTFGPGTKVDIKR
B3: AT10-003 (antibody, V domains shown)
VH: QVHLVQSGAEVRKPGASVKVSCKVSGYTLNELSIHWLRQAPGRGLEWMGSFDPEDGETIYAQKFQGRVTMTGDTSTDTAYLELTSLRSEDTALYYCARGWGAVTSPFDFWGQGTLVTVSS
VL: DIVMTQSPLSLPVTPGEPASISCRSSQSLLHSNGHIYFDWYLQKPGQSPQLLIYLVSKRASGVPDRFSGSGSGTDFTLKISRVEAEDVGVYYCMQALETPFTFGPGTKVHIKR
B4: AT10-002 (antibody, V domains shown)
VH: QLQLQESGPRLVKPSETLSLTCSVSGVSISSSNYYWGWIRQPPGKGLEWIGTIYHSGSTYYNPSLKSRLIISVDTSKNQFYLQLTSLTAADSAVYYCATGGGFGWSQTYFGYWGQGTLVTASS
VL: QSALTQPASVSGSPGQSITISCTGTSSDVGAYNYVSWYQHHPGKAPKLMIYDVTYRPSGVSTRFSGSKSGNTASLTISGLQAEDEADYYCSSQSRSSTLVIFGGGTKLTVLG

One test concerns the target HA of H5N1 A/turkey/Turkey/05 virus (Influenza A virus H5N1 A/turkey/Turkey/05). Briefly: cell-based or functional assay.
On to B1, for which the IC50, in vitro virus neutralization on MDCK cells is above 15 µg/mL.

The next test deals with HA of Influenza H3N2 (A/Swine/St. Oedenrode/1996), on infected MDCK cells or on virus (Influenza A virus H3N2 A/Swine/St. Oedenrode/1996 (host Swine)). Put plainly: cell-based or functional assay.
On to B1, for which the IC50, in vitro virus neutralization on MDCK cells is 2.3 µg/mL.

On to B2, for which the IC50, in vitro virus neutralization on MDCK cells amounted to 14 µg/mL.

Consider B3, for which the IC50, in vitro virus neutralization on MDCK cells is above 15 µg/mL.

The molecule B4 showed an IC50, in vitro virus neutralization on MDCK cells of 0.3 µg/mL.

For the next test, the target named is HA of high pathogenic H7N7 (A/Ch/Neth/621557/03), on infected MDCK cells or on virus (Influenza A virus H7N7 A/Ch/Neth/621557/03 (host Chicken)). Put plainly: cell-based or functional assay.
Molecule B1 showed an IC50, in vitro virus neutralization on MDCK cells of 0.2 µg/mL.

The molecule B2 showed an IC50, in vitro virus neutralization on MDCK cells of 0.4 µg/mL.

For B3, the IC50, in vitro virus neutralization on MDCK cells is above 15 µg/mL.

For B4, the IC50, in vitro virus neutralization on MDCK cells worked out at 0.1 µg/mL.

The target in another test is HA of Influenza H1N1 (A/Neth/602/2009), on infected MDCK cells or on virus (Influenza A virus H1N1 A/Neth/602/2009 (host Human)). Briefly: cell-based or functional assay.
For B1, the IC50, in vitro virus neutralization on MDCK cells was above 15 µg/mL.

Take B2: the IC50, in vitro virus neutralization on MDCK cells was above 15 µg/mL.

B3: the IC50, in vitro virus neutralization on MDCK cells was above 15 µg/mL.

On to B4, for which the IC50, in vitro virus neutralization on MDCK cells was above 15 µg/mL.

The target in a further test is HA of H3N2 HKX-31 virus (Influenza A virus H3N2 HKX-31). Briefly: cell-based or functional assay.
The molecule B1 yielded an IC50, in vitro virus neutralization on MDCK-SIAT cells of 0.017 µg/mL.

A further test has as its target HA of Influenza H3N2 (A/Netherlands/177/2008), on infected MDCK-SIAT cells or on virus (Influenza A virus H3N2 A/Netherlands/177/2008). Briefly: cell-based or functional assay.
On to B1, for which the IC50, in vitro virus neutralization on MDCK-SIAT cells was determined as 0.17 µg/mL.

B2 had an IC50, in vitro virus neutralization on MDCK-SIAT cells of 0.64 µg/mL.

The molecule B3 gave an IC50, in vitro virus neutralization on MDCK-SIAT cells above 50 µg/mL.

In the case of B4, the IC50, in vitro virus neutralization on MDCK-SIAT cells stood at 0.18 µg/mL.

In the next test the target is HA of low pathogenic H7N1 (A/Ch/Italy/1067/1999), on infected MDCK cells or on virus (Influenza A virus H7N1 A/Ch/Italy/1067/1999 (host Chicken)). Briefly: cell-based or functional assay.
Consider B1, for which the IC50, in vitro virus neutralization on MDCK cells came out at 0.6 µg/mL.

Turning to B2, the IC50, in vitro virus neutralization on MDCK cells was above 15 µg/mL.

B3 showed an IC50, in vitro virus neutralization on MDCK cells above 15 µg/mL.

Molecule B4 displayed an IC50, in vitro virus neutralization on MDCK cells of 3.6 µg/mL.

The target of a further test is HA of Influenza H1N1 (A/Hawaii/31/2007), on infected MDCK-SIAT cells or on virus (Influenza A virus H1N1 A/Hawaii/31/2007). Put plainly: cell-based or functional assay.
B1 gave an IC50, in vitro virus neutralization on MDCK-SIAT cells above 50 µg/mL.

Regarding B3, the IC50, in vitro virus neutralization on MDCK-SIAT cells is above 15 µg/mL.

In turn, B4 yielded an IC50, in vitro virus neutralization on MDCK-SIAT cells above 15 µg/mL.
